Target: gp120/CD4 complex (human immunodeficiency virus (HIV), hxbc2) (UniProt P04578)
Assay: SPR (Biacore); 48d immobilized; gp120 50 nM, CD4 250 nM, heparin dp16 at 125 nM (0.6 µg/ml) as inhibitor

For “antibody 48d specific for the CD4i epitope”, the % inhibition of the interaction by heparin dp16 (125 nM) was 90 to 100%.

Reference: patent US20060084593A1
